The results in this text go back to IntAct's records for PubMed 12551906.

B1: Dolichyl-phosphate-mannose--protein mannosyltransferase 1 (Saccharomyces cerevisiae), P33775 (parent)
chain: MSEEKTYKRVEQDDPVPELDIKQGPVRPFIVTDPSAELASLRTMVTLKEKLLVACLAVFTAVIRLHGLAWPDSVVFDEVHFGGFASQYIRGTYFMDVHPPLAKMLYAGVASLGGFQGDFDFENIGDSFPSTTPYVLMRFFSASLGALTVILMYMTLRYSGVRMWVALMSAICFAVENSYVTISRYILLDAPLMFFIAAAVYSFKKYEMYPANSLNAYKSLLATGIALGMASSSKWVGLFTVTWVGLLCIWRLWFMIGDLTKSSKSIFKVAFAKLAFLLGVPFALYLVFFYIHFQSLTLDGDGASFFSPEFRSTLKNNKIPQNVVADVGIGSIISLRHLSTMGGYLHSHSHNYPAGSEQQQSTLYPHMDANNDWLLELYNAPGESLTTFQNLTDGTKVRLFHTVTRCRLHSHDHKPPVSESSDWQKEVSCYGYSGFDGDANDDWVVEIDKKNSAPGVAQERVIALDTKFRLRHAMTGCYLFSHEVKLPAWGFEQQEVTCASSGRHDLTLWYVENNSNPLLPEDTKRISYKPASFISKFIESHKKMWHINKNLVEPHVYESQPTSWPFLLRGISYWGENNRNVYLLGNAIVWWAVTAFIGIFGLIVITELFSWQLGKPILKDSKVVNFHVQVIHYLLGFAVHYAPSFLMQRQMFLHHYLPAYYFGILALGHALDIIVSYVFRSKRQMGYAVVITFLAASVYFFKSFSPIIYGTPWTQELCQKSQWLSGWDYNCNTYFSSLEEYKNQTLTKRESQPAATSTVEEITIEGDGPSYEDLMNEDGKKIFKDTEGNELDPEVVKKMLEEEGANILKVEKRAVLE
partner: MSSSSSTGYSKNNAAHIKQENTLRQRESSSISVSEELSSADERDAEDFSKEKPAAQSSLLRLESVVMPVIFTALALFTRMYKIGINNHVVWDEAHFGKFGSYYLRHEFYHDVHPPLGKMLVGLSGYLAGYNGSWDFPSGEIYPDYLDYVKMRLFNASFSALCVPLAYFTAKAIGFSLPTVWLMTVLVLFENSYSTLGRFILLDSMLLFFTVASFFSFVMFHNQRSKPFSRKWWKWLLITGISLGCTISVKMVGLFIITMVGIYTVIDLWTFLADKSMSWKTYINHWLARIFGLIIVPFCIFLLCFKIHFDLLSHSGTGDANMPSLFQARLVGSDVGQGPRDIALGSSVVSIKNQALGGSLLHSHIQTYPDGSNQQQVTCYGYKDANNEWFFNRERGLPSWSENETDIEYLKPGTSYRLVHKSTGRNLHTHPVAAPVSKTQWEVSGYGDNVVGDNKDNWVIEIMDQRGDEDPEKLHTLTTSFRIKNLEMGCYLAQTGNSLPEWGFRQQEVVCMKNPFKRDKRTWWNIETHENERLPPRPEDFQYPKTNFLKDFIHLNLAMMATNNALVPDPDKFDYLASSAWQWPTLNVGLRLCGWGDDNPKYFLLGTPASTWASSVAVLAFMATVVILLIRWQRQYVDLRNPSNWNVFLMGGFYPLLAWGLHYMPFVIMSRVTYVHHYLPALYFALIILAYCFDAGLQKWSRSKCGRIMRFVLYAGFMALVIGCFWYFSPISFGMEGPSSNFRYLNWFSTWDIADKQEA

In the assay the parent is B1. The conditions noted are these: with pmt2_yeast PMT2, P31382.
For the variant R138K, the “effect of a mutation on the interaction” value is recorded as “decreasing interaction strength”.

Consider R138A, for which the “effect of a mutation on the interaction” value is “disrupting interaction strength”.
